{"source": "patent US20210388087A1", "about": "(Chugai, published 2021)", "binders": {"B1": {"name": "dBBDu183H Y97R/dBBDu072L (antibody, name in Kabat numbering, V domains shown)", "VH": "QVQLVESGGGLVQPGRSLRLSCAASGFTFSNAWMHWVRQAPGKGLEWVAQIKDKGNAYAAYYAPSVKGRFTISRDDSKNSIYLQMNSLKTEDTAVYYCHYVHRASASTVLPAFGVDAWGQGTTVTVSS", "VL": "DIVMTQSPLSLPVTPGEPASISCQASQELVHMNRNTYLHWYQQKPGQAPRLLIYKVSNRFPGVPDRFSGSGSGTDFTLKISRVEAEDVGVYYCAQGTSVPFTFGQGTKLEIK"}, "B2": {"name": "dBBDu183H Y97T/dBBDu072L (antibody, name in Kabat numbering, V domains shown)", "VH": "B1 VH with R103T", "VL": "B1 VL"}, "B3": {"name": "dBBDu183H Y97W/dBBDu072L (antibody, name in Kabat numbering, V domains shown)", "VH": "B1 VH with R103W", "VL": "B1 VL"}, "B4": {"name": "dBBDu183H Y97V/dBBDu072L (antibody, name in Kabat numbering, V domains shown)", "VH": "B1 VH with R103V", "VL": "B1 VL"}, "B5": {"name": "dBBDu183H Y97S/dBBDu072L (antibody, name in Kabat numbering, V domains shown)", "VH": "B1 VH with R103S", "VL": "B1 VL"}, "B6": {"name": "CE115HA000 H35A one-arm antibody (antibody, human IgG1, kappa, L234A L235A, N297A, name in Kabat numbering)", "heavy": "QVQLVESGGGVVQPGRSLRLSCAASGFTFSNAWMAWVRQAPGKGLEWVAQIKAKSNNYATYYAESVKGRFTISRDDSKNSLYLQMNSLKTEDTAVYYCRYVHYGAYYGVDAWGQGTTVTVSSASTKGPSVFPLAPSSKSTSGGTAALGCLVKDYFPEPVTVSWNSGALTSGVHTFPAVLQSSGLYSLSSVVTVPSSSLGTQTYICNVNHKPSNTKVDKKVEPKSCDKTHTCPPCPAPEAAGGPSVFLFPPKPKDTLMISRTPEVTCVVVDVSHEDPEVKFNWYVDGVEVHNAKTKPREEQYASTYRVVSVLTVLHQDWLNGKEYKCKVSNKALPAPIEKTISKAKGQPREPQVYTLPPSRCELTKNQVSLSCAVKGFYPSDIAVEWESNGQPENNYKTTPPVLDSDGSFFLVSKLTVDKSRWQQGNVFSCSVMHEALHNHYTQKSLSLSPDYKDDDDK", "chain": "EPKSSDKTHTCPPCPAPELLGGPSVFLFPPKPKDTLMISRTPEVTCVVVDVSHEDPEVKFNWYVDGVEVHNAKTKPREEQYNSTYRVVSVLTVLHQDWLNGKEYKCKVSNKALPAPIEKTISKAKGQPREPQVCTLPPSRDELTKNQVSLWCLVKGFYPSDIAVEWESNGQPENNYKTTPPVLDSDGSFFLYSKLTVDKSRWQQGNVFSCSVMHEALHNRYTQKSLSLSP", "light": "DIVMTQSPLSLPVTPGEPASISCRSSQSLVHSNRNTYLHWYQQKPGQAPRLLIYKVSNRFSGVPDRFSGSGSGTDFTLKISRVEAEDVGVYYCGQGTQVPYTFGQGTKLEIKRTVAAPSVFIFPPSDEQLKSGTASVVCLLNNFYPREAKVQWKVDNALQSGNSQESVTEQDSKDSTYSLSSTLTLSKADYEKHKVYACEVTHQGLSSPVTKSFNRGEC"}, "B7": {"name": "CE115HA000 A56Y one-arm antibody (antibody, human IgG1, kappa, L234A L235A, N297A, name in Kabat numbering)", "heavy": "B6 heavy with A35H, A59Y", "chain": "B6 chain", "light": "B6 light"}, "B8": {"name": "CE115HA000 A56N one-arm antibody (antibody, human IgG1, kappa, L234A L235A, N297A, name in Kabat numbering)", "heavy": "B6 heavy with A35H, A59N", "chain": "B6 chain", "light": "B6 light"}, "B9": {"name": "CE115HA000 A56L one-arm antibody (antibody, human IgG1, kappa, L234A L235A, N297A, name in Kabat numbering)", "heavy": "B6 heavy with A35H, A59L", "chain": "B6 chain", "light": "B6 light"}, "B10": {"name": "CE115HA000 A56K one-arm antibody (antibody, human IgG1, kappa, L234A L235A, N297A, name in Kabat numbering)", "heavy": "B6 heavy with A35H, A59K", "chain": "B6 chain", "light": "B6 light"}, "B11": {"name": "CE115HA000 A56G one-arm antibody (antibody, human IgG1, kappa, L234A L235A, N297A, name in Kabat numbering)", "heavy": "B6 heavy with A35H, A59G", "chain": "B6 chain", "light": "B6 light"}, "B12": {"name": "CE115HA000 A52aS one-arm antibody (antibody, human IgG1, kappa, L234A L235A, N297A, name in Kabat numbering)", "heavy": "B6 heavy with A35H, A53S", "chain": "B6 chain", "light": "B6 light"}, "B13": {"name": "CE115HA000 A56Q one-arm antibody (antibody, human IgG1, kappa, L234A L235A, N297A, name in Kabat numbering)", "heavy": "B6 heavy with A35H, A59Q", "chain": "B6 chain", "light": "B6 light"}, "B14": {"name": "CE115HA000 A99Y one-arm antibody (antibody, human IgG1, kappa, L234A L235A, N297A, name in Kabat numbering)", "heavy": "B6 heavy with A35H, A105Y", "chain": "B6 chain", "light": "B6 light"}, "B15": {"name": "CE115HA000 A52aV one-arm antibody (antibody, human IgG1, kappa, L234A L235A, N297A, name in Kabat numbering)", "heavy": "B6 heavy with A35H, A53V", "chain": "B6 chain", "light": "B6 light"}, "B16": {"name": "CE115HA000 A99Q one-arm antibody (antibody, human IgG1, kappa, L234A L235A, N297A, name in Kabat numbering)", "heavy": "B6 heavy with A35H, A105Q", "chain": "B6 chain", "light": "B6 light"}, "B17": {"name": "CE115HA000 A99F one-arm antibody (antibody, human IgG1, kappa, L234A L235A, N297A, name in Kabat numbering)", "heavy": "B6 heavy with A35H, A105F", "chain": "B6 chain", "light": "B6 light"}, "B18": {"name": "CE115HA000 A56D one-arm antibody (antibody, human IgG1, kappa, L234A L235A, N297A, name in Kabat numbering)", "heavy": "B6 heavy with A35H, A59D", "chain": "B6 chain", "light": "B6 light"}, "B19": {"name": "CE115HA000 A52aP one-arm antibody (antibody, human IgG1, kappa, L234A L235A, N297A, name in Kabat numbering)", "heavy": "B6 heavy with A35H, A53P", "chain": "B6 chain", "light": "B6 light"}, "B20": {"name": "CE115HA000 A60E one-arm antibody (antibody, human IgG1, kappa, L234A L235A, N297A, name in Kabat numbering)", "heavy": "B6 heavy with A35H, A63E", "chain": "B6 chain", "light": "B6 light"}, "B21": {"name": "CE115HA000 A52aG one-arm antibody (antibody, human IgG1, kappa, L234A L235A, N297A, name in Kabat numbering)", "heavy": "B6 heavy with A35H, A53G", "chain": "B6 chain", "light": "B6 light"}, "B22": {"name": "CE115HA000 A99K one-arm antibody (antibody, human IgG1, kappa, L234A L235A, N297A, name in Kabat numbering)", "heavy": "B6 heavy with A35H, A105K", "chain": "B6 chain", "light": "B6 light"}, "B23": {"name": "CE115HA000 A32Y one-arm antibody (antibody, human IgG1, kappa, L234A L235A, N297A, name in Kabat numbering)", "heavy": "B6 heavy with A32Y, A35H", "chain": "B6 chain", "light": "B6 light"}, "B24": {"name": "CE115HA000 A99T one-arm antibody (antibody, human IgG1, kappa, L234A L235A, N297A, name in Kabat numbering)", "heavy": "B6 heavy with A35H, A105T", "chain": "B6 chain", "light": "B6 light"}, "B25": {"name": "CE115HA000 A99D one-arm antibody (antibody, human IgG1, kappa, L234A L235A, N297A, name in Kabat numbering)", "heavy": "B6 heavy with A35H, A105D", "chain": "B6 chain", "light": "B6 light"}, "B26": {"name": "CE115HA000 A60D one-arm antibody (antibody, human IgG1, kappa, L234A L235A, N297A, name in Kabat numbering)", "heavy": "B6 heavy with A35H, A63D", "chain": "B6 chain", "light": "B6 light"}, "B27": {"name": "CE115HA000 A99L one-arm antibody (antibody, human IgG1, kappa, L234A L235A, N297A, name in Kabat numbering)", "heavy": "B6 heavy with A35H, A105L", "chain": "B6 chain", "light": "B6 light"}, "B28": {"name": "CE115HA000 A52aD one-arm antibody (antibody, human IgG1, kappa, L234A L235A, N297A, name in Kabat numbering)", "heavy": "B6 heavy with A35H, A53D", "chain": "B6 chain", "light": "B6 light"}, "B29": {"name": "CE115HA000 A52aY one-arm antibody (antibody, human IgG1, kappa, L234A L235A, N297A, name in Kabat numbering)", "heavy": "B6 heavy with A35H, A53Y", "chain": "B6 chain", "light": "B6 light"}, "B30": {"name": "CE115HA000 A52aE one-arm antibody (antibody, human IgG1, kappa, L234A L235A, N297A, name in Kabat numbering)", "heavy": "B6 heavy with A35H, A53E", "chain": "B6 chain", "light": "B6 light"}, "B31": {"name": "CE115HA000 A99S one-arm antibody (antibody, human IgG1, kappa, L234A L235A, N297A, name in Kabat numbering)", "heavy": "B6 heavy with A35H, A105S", "chain": "B6 chain", "light": "B6 light"}}, "note": "Changes are numbered by the printed parent chain. Names and notes keep the numbering of the source.", "data": [{"target": "T1, Human CD3eg linker (human)", "T1 construct": "single-chain construct; also called recombinant human CD3", "T1 chain": "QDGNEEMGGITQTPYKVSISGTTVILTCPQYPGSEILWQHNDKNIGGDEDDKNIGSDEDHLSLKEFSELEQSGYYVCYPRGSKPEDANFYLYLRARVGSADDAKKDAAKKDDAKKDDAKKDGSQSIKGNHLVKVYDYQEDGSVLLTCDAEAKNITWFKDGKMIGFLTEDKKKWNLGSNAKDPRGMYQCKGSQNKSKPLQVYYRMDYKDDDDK", "experiment": "SPR, vs unmutated H183/L072", "units": {"fold change of affinity": "fold"}, "values": [{"binder": "B1", "fold change of affinity": 0}, {"binder": "B2", "fold change of affinity": 0}, {"binder": "B3", "fold change of affinity": 0.2}, {"binder": "B4", "fold change of affinity": 0}, {"binder": "B5", "fold change of affinity": 0}]}, {"target": "T2, CD3 epsilon homodimer protein (UniProt P07766 23-126)", "T2 construct": "immobilized on Sensor chip CM4 by amine coupling; also called CD3 (CD3 epsilon)", "T2 sequence (P07766 23-126)": "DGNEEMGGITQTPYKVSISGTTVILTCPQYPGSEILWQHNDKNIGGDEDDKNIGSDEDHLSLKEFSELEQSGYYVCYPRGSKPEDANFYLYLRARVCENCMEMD", "experiment": "SPR (Biacore T200), CD3 epsilon homodimer on CM4 chip, one-arm antibody as analyte, 25 C;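 also: homodimer attached to the sensor surface via amine coupling, HBS-EP+ used as running buffer during binding runs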", "values": [{"binder": "B6", "ratio of amounts bound (altered form / CE115HA000)": 0.17}, {"binder": "B7", "ratio of amounts bound (altered form / CE115HA000)": 0.66}, {"binder": "B8", "ratio of amounts bound (altered form / CE115HA000)": 0.87}, {"binder": "B9", "ratio of amounts bound (altered form / CE115HA000)": 0.8}, {"binder": "B10", "ratio of amounts bound (altered form / CE115HA000)": 1.35}, {"binder": "B11", "ratio of amounts bound (altered form / CE115HA000)": 0.61}, {"binder": "B12", "ratio of amounts bound (altered form / CE115HA000)": 1.05}, {"binder": "B13", "ratio of amounts bound (altered form / CE115HA000)": 0.76}, {"binder": "B14", "ratio of amounts bound (altered form / CE115HA000)": 1.59}, {"binder": "B15", "ratio of amounts bound (altered form / CE115HA000)": 0.52}, {"binder": "B16", "ratio of amounts bound (altered form / CE115HA000)": 0.91}, {"binder": "B17", "ratio of amounts bound (altered form / CE115HA000)": 1.43}, {"binder": "B18", "ratio of amounts bound (altered form / CE115HA000)": 0.51}, {"binder": "B19", "ratio of amounts bound (altered form / CE115HA000)": 0.15}, {"binder": "B20", "ratio of amounts bound (altered form / CE115HA000)": 0.94}, {"binder": "B21", "ratio of amounts bound (altered form / CE115HA000)": 0.81}, {"binder": "B22", "ratio of amounts bound (altered form / CE115HA000)": 1.48}, {"binder": "B23", "ratio of amounts bound (altered form / CE115HA000)": 0.33}, {"binder": "B24", "ratio of amounts bound (altered form / CE115HA000)": 0.84}, {"binder": "B25", "ratio of amounts bound (altered form / CE115HA000)": 0.28}, {"binder": "B26", "ratio of amounts bound (altered form / CE115HA000)": 0.99}, {"binder": "B27", "ratio of amounts bound (altered form / CE115HA000)": 1.13}, {"binder": "B28", "ratio of amounts bound (altered form / CE115HA000)": 1.34}, {"binder": "B29", "ratio of amounts bound (altered form / CE115HA000)": 0.31}, {"binder": "B30", "ratio of amounts bound (altered form / CE115HA000)": 0.57}, {"binder": "B31", "ratio of amounts bound (altered form / CE115HA000)": 0.82}]}]}
